Earlier results, collected in publication PMC11260871.
Each block holds one substance with its values, some of them ahead of it.

Tests used:
laminin alpha2 = laminin alpha2 (UniProt P24043)
laminin alpha4 = laminin alpha4 (UniProt Q16363)
laminin alpha5 = laminin alpha5 (UniProt O15230)
laminin alpha1 = laminin alpha1 (UniProt P25391)
[1] = target: laminin gamma LN domain LN (UniProt P11047)
laminin gamma1 LEb = laminin gamma1 LEb (UniProt P11047)

UniProt P25391, sequence (P25391 18-3075): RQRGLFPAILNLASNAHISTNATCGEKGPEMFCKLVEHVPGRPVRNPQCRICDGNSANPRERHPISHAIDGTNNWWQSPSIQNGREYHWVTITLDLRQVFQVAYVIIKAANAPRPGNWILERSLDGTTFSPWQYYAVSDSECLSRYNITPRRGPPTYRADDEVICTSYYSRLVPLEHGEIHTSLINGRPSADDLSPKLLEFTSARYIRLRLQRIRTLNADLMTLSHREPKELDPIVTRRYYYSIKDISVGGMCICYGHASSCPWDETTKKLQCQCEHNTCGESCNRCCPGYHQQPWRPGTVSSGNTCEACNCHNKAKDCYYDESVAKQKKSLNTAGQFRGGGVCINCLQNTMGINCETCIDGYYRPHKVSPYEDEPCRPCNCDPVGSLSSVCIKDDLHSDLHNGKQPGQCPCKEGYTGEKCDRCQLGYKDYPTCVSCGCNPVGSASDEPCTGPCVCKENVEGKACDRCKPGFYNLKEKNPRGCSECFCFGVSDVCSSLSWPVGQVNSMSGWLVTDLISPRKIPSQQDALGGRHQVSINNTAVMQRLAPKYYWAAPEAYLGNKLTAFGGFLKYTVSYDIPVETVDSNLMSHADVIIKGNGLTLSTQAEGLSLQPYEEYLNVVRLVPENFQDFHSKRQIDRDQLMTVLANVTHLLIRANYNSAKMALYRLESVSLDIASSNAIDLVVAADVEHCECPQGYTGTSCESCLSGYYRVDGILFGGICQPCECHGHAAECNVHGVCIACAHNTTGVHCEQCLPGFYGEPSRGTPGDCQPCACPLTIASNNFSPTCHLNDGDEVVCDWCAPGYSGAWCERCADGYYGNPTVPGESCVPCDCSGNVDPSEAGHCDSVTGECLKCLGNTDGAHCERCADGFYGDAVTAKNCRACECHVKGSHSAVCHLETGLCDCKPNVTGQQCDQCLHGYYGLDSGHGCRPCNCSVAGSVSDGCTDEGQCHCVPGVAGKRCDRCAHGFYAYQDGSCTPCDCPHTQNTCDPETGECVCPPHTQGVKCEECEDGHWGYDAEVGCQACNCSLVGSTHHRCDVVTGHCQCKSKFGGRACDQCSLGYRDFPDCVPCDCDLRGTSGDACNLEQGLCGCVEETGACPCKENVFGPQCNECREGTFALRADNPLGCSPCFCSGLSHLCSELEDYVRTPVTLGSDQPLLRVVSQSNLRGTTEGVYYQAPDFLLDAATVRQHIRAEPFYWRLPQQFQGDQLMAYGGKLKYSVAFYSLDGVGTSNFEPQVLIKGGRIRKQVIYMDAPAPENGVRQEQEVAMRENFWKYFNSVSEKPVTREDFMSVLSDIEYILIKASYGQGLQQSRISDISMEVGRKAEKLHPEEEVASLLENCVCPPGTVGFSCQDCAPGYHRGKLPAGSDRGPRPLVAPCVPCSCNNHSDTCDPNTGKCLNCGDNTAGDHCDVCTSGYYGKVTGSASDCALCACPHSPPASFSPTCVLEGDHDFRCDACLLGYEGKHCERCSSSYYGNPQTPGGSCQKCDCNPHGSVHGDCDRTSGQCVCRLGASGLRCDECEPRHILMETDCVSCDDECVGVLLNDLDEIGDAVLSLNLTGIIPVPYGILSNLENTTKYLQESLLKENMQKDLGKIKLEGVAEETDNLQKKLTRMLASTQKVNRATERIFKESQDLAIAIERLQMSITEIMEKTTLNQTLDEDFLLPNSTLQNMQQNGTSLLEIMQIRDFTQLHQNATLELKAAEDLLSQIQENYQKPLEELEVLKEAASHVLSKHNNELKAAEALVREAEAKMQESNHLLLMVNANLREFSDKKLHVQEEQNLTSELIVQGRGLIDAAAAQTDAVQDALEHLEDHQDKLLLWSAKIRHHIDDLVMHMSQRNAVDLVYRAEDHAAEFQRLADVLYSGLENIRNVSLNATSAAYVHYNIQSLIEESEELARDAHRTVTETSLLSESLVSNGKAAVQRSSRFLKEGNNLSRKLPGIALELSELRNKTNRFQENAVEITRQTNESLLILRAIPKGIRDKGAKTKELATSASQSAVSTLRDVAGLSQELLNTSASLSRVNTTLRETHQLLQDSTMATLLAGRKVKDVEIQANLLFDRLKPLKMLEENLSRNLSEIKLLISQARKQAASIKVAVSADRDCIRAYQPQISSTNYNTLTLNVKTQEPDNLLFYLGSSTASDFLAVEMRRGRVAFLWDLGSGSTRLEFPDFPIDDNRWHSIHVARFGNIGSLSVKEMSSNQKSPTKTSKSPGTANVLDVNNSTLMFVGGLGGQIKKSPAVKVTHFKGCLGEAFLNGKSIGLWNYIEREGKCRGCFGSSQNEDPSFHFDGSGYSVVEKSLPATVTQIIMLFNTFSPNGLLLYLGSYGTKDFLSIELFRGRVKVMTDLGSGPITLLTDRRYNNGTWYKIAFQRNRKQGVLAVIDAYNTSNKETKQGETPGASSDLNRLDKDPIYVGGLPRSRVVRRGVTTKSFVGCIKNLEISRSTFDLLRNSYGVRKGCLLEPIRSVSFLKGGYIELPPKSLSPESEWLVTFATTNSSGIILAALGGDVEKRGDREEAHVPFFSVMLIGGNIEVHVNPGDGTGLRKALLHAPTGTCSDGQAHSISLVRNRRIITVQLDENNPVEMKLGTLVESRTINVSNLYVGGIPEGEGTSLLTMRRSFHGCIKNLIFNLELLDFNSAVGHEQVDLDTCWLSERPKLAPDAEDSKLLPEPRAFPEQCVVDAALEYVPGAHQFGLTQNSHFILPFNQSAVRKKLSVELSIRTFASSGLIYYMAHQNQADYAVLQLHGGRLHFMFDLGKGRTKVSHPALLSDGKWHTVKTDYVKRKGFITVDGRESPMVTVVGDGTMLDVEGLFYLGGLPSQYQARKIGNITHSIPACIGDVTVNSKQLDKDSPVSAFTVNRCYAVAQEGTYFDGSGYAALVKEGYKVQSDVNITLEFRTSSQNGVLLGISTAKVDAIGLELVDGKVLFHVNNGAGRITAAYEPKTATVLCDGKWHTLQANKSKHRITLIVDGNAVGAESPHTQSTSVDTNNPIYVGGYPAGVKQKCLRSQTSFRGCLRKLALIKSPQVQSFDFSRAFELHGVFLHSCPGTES
UniProt Q16363, sequence (Q16363 25-1823): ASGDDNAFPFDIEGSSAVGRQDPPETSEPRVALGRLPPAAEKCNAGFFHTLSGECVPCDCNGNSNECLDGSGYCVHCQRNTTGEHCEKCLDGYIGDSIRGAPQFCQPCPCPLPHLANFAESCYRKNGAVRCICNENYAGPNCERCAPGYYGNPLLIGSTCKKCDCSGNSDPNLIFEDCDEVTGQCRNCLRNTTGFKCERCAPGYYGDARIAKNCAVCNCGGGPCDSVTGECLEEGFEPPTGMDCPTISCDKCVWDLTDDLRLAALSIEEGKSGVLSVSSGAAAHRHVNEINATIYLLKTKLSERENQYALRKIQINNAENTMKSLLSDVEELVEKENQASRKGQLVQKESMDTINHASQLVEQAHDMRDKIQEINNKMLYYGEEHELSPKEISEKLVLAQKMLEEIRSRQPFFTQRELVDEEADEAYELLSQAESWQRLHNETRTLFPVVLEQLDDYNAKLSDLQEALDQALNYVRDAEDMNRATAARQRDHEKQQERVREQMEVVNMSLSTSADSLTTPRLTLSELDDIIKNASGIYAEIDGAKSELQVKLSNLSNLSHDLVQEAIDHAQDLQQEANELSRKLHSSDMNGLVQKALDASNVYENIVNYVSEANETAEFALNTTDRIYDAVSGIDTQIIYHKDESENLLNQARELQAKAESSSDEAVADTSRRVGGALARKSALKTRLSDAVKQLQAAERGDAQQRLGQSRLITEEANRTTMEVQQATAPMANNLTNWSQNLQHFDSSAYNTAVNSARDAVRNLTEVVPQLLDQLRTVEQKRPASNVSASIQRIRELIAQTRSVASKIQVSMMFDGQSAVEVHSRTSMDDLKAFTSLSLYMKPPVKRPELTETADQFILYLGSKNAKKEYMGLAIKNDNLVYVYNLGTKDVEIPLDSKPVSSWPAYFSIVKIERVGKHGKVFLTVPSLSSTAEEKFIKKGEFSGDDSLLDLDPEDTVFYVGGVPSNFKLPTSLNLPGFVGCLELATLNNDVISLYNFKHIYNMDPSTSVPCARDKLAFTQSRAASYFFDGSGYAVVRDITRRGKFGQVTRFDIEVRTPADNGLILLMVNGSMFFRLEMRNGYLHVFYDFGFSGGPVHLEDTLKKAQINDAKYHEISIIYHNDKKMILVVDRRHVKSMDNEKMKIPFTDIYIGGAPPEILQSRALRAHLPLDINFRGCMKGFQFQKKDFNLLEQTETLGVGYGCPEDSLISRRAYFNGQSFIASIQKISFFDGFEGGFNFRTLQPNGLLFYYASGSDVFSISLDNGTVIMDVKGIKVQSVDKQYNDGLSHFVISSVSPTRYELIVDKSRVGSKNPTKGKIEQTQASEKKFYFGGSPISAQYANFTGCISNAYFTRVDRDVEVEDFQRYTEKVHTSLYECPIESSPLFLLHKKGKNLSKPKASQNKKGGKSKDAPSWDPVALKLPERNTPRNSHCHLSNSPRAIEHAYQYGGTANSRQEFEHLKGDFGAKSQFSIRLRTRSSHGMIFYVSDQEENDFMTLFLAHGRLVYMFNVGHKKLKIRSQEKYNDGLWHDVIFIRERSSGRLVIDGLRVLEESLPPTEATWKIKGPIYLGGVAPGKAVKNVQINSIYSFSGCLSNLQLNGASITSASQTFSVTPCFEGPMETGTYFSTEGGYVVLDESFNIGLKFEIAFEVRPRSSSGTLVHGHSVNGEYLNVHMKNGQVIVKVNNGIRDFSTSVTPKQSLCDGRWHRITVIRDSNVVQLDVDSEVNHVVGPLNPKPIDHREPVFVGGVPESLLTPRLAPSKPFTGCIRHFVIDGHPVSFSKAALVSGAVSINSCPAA

Kd (laminin alpha2): 43 nM | Kd (laminin alpha4): > 1000 nM | Kd (laminin alpha5): 150 nM | Kd (laminin alpha1): 20 nM
Substance: alpha-dystroglycan (from UniProt Q14118)

Kd [1]: 18000 nM
Substance: laminin beta LN domain LN (from UniProt P07942)

Kd (laminin gamma1 LEb): < 1 nM
Substance: nidogen-1 G3 (from UniProt P14543)
